Publication doi:10.1101/2025.11.21.689414 (bioRxiv, 2025)
Blank lines part the entries; values can stand above or below the binder they belong to.

Assays:
[1] = target: alpha hemoglobin stabilizing protein (AHSP) (Homo sapiens (species ; …, UniProt Q9NZD4); test: ELISA
parvin alpha (PARVA) = parvin alpha (PARVA) (Homo sapiens (species ; …, UniProt Q9NVD7); test: ELISA
[2] = target: Frizzled class receptor 7 (Fzd7), His-tagged (UniProt O75084); test: BLI

Sequence of parvin alpha (PARVA) (Homo sapiens (Q9NVD7 whole entry): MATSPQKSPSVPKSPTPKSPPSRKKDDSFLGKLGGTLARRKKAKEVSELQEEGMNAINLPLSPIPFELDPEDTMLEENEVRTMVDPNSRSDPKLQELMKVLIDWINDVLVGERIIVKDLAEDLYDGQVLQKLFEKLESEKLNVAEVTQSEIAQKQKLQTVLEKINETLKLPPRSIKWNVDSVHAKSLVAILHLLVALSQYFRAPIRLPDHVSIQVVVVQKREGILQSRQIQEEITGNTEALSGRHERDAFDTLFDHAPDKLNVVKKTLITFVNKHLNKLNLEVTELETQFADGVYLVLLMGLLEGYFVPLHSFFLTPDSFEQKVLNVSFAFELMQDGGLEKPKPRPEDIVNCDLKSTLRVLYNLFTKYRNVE
Sequence of alpha hemoglobin stabilizing protein (AHSP) (Homo sapiens (Q9NZD4 whole entry): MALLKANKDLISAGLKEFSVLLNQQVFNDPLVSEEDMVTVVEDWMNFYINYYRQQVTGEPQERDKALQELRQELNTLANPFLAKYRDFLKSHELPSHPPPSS

binding result [1]: binds
B1: representative AHSP binder (GaluxDesign de novo designed full-length IgG, cross-platform benchmark) (antibody, V domains shown)
VH: VQLVESGGGLVQPGGSLRLSCAASGFNIKSFWIHWVRQAPGKGLEWVAWIFALTGNTYYADSVKGRFTISADTSKNTAYLQMNSLRAEDTAVYYCAKASGVSIPLWFDVWGQGTLVTVSS
VL: DIQMTQSPSSLSASVGDKVTITCKASQDISNYLAWYQQKPGKAPKLLIYAASNRKYGVPSRFSGSGSGTDFTLTISSLQPEDFATYYCQQYYSTPLTFGQGTKVEIK

binding result (parvin alpha (PARVA)): binds
B2: representative PARVA binder (GaluxDesign de novo designed full-length IgG, cross-platform benchmark) (antibody, V domains shown)
VH: EEQLVESGGGLVQPGGSLRLSCAASGFNIKDYWIHWVRQAPGKGLEWVAWINPQSGWTNYADSVKGRFTISADTSKNTAYLQMNSLRAEDTATYYCAKIGDWGGKGYALDVWGQGTLVTVSS
VL: DIVMTQSPSSLSASVGDRVTITCRASQDISTALAWYQQKPGQAPKLLIYKASSLASGVPSRFSGSGSGTDFTLTISSLQPEDFATYYCQQFRDLSTLTFGQGTKVEIK

binding result [2]: binds
B3: F7.B (reference anti-Fzd7 antibody, PDB entry 6O3A) (antibody, V domains shown)
VH: EVQLVESGGGLVQPGGSLRLSCAASGFNFSSSSIHWVRQAPGKGLEWVAYIYPSYDYTYYADSVKGRFTISADTSKNTAYLQMNSLRAEDTAVYYCARGYFYTWGGMDYWGQGTLVTVSS
VL: DIQMTQSPSSLSASVGDRVTITCRASQSVSSAVAWYQQKPGKAPKLLIYSASSLYSGVPSRFSGSRSGTDFTLTISSLQPEDFATYYCQQYYSLFTFGQGTKVEIK
